# Source: article PMC4098843 (Nature communications, 2014)
# B1: AF2299, a CDP-alcohol phosphotransferase from Archaeoglobus fulgidus (enzyme, Archaeoglobus fulgidus DSM 4304, UniProt O27985 1-344, looked up)
# chain: MRLAYVKNHEIYGEKLLGLTLRERIEKTLQRAGFDVRFFDELSLEEAEDYLIILEPVLILERDLLLEGRKILVSDGFTVGYFFGGDFRTVFDGNLQSSIEKYLSLNNLESYEIWAIKLSNDNLKTAEKLLLSSLIKAKRTGLKPAYYDGWIAREINRKVSLRISRLLADTSVTPNQITVFSFFLSLVGSALFLLNSYLTTLLAGVIIQLHSIIDGCDGEIARLKFMESKYGAWLDGVLDRYSDFIIVFSITYVLSASNPVYWIIGFLAAFASLMIAYTGDKFVAAYMRTYSPEGFAIPITRDFRLLIIFACSVVNLPSLALVIIALLGNFEALRRIVALRSYTN
# Molecular target: the molecule itself
# Test: crystal structure
protein,measurement,value
B1,stoichiometry N,2
